Measurements taken from patent US20230093265A1 (PROSMEDIC SWEDEN, published 2023).

B1: human synthetic scFv fragment 6 (scFv)
scFv: EVQLLESGGGLVQPGGSLRLSCAASGFTFSSYAMSWVRQAPGKGLEWVSAISGSGGSTYYASVKGRFTISRDNSKNTLYLQMNSLRAEDTAVYYCARYVRGYGYGYLDYWGQGTLVTVSSGGGGSGGGGSGGGGSDIQMTQSPSSLSASVGDRVTITCRASQSISSYLNWYQQKPGKAPKLLIYAASSLQSGVPSRFSGSGSGTDFTLTISSLQPEDFATYYCQQAPAYSPFTFGQGTKLEIKR
notes: also called scFv 6
B2: human synthetic scFv fragment 5 (scFv)
scFv: EVQLLESGGGLVQPGGSLRLSCAASGFTFSSYAMSWVRQAPGKGLEWVSAISGSGGSTYYASVKGRFTISRDNSKNTLYLQMNSLRAEDTAVYYCARSYSWYSRGPSLDYWGQGTLVTVSSGGGGSGGGGSGGGGSDIQMTQSPSSLSASVGDRVTITCRASQSISSYLNWYQQKPGKAPKLLIYAASSLQSGVPSRFSGSGSGTDFTLTISSLQPEDFATYYCQQAFYAHLLTFGQGTKLEIKR
notes: also called scFv 5
B3: human synthetic scFv fragment 12 (scFv)
scFv: EVQLLESGGGLVQPGGSLRLSCAASGFTFSSYAMSWVRQAPGKGLEWVSAISGSGGSTYYASVKGRFTISRDNSKNTLYLQMNSLRAEDTAVYYCARTYYYFYPYGYYFDYWGQGTLVTVSSGGGGSGGGGSGGGGSDIQMTQSPSSLSASVGDRVTITCRASQSISSYLNWYQQKPGKAPKLLIYAASSLQSGVPSRFSGSGSGTDFTLTISSLQPEDFATYYCQQGFYLPTFGQGTKLEIKR
notes: also called scFv 12
B4: human synthetic scFv fragment 1 (scFv)
scFv: EVQLLESGGGLVQPGGSLRLSCAASGFTFSSYAMSWVRQAPGKGLEWVSAISGSGGSTYYASVKGRFTISRDNSKNTLYLQMNSLRAEDTAVYYCARHYYNWASGYFDYWGQGTLVTVSSGGGGSGGGGSGGGGSDIQMTQSPSSLSASVGDRVTITCRASQSISSYLNWYQQKPGKAPKLLIYAASSLQSGVPSRFSGSGSGTDFTLTISSLQPEDFATYYCQQGWYPPTFGQGTKLEIKR
notes: also called scFv 1
B5: human synthetic scFv fragment 7 (scFv)
scFv: EVQLLESGGGLVQPGGSLRLSCAASGFTFSSYAMSWVRQAPGKGLEWVSAISGSGGSTYYASVKGRFTISRDNSKNTLYLQMNSLRAEDTAVYYCARYTHSTYGYRLDYWGQGTLVTVSSGGGGSGGGGSGGGGSDIQMTQSPSSLSASVGDRVTITCRASQSISSYLNWYQQKPGKAPKLLIYAASSLQSGVPSRFSGSGSGTDFTLTISSLQPEDFATYYCQQDAYHPPTFGQGTKLEIKR
notes: also called scFv 7; AK7
B6: human synthetic scFv fragment 2 (scFv)
scFv: EVQLLESGGGLVQPGGSLRLSCAASGFTFSSYAMSWVRQAPGKGLEWVSAISGSGGSTYYASVKGRFTISRDNSKNTLYLQMNSLRAEDTAVYYCARTTSYYGYSAHFIDYWGQGTLVTVSSGGGGSGGGGSGGGGSDIQMTQSPSSLSASVGDRVTITCRASQSISSYLNWYQQKPGKAPKLLIYAASSLQSGVPSRFSGSGSGTDFTLTISSLQPEDFATYYCQQGYGPFTFGQGTKLEIKR
notes: also called scFv 2
B7: human synthetic scFv fragment 9 (scFv)
scFv: EVQLLESGGGLVQPGGSLRLSCAASGFTFSSYAMSWVRQAPGKGLEWVSAISGSGGSTYYASVKGRFTISRDNSKNTLYLQMNSLRAEDTAVYYCARSHYGSLDYWGQGTLVTVSSGGGGSGGGGSGGGGSDIQMTQSPSSLSASVGDRVTITCRASQSISSYLNWYQQKPGKAPKLLIYAASSLQSGVPSRFSGSGSGTDFTLTISSLQPEDFATYYCQQFSYTLSTFGQGTKLEIKR
notes: also called scFv 9
B8: human synthetic scFv fragment 3 (scFv)
scFv: EVQLLESGGGLVQPGGSLRLSCAASGFTFSSYAMSWVRQAPGKGLEWVSAISGSGGSTYYASVKGRFTISRDNSKNTLYLQMNSLRAEDTAVYYCARVYYHYYYYGSFDYWGQGTLVTVSSGGGGSGGGGSGGGGSDIQMTQSPSSLSASVGDRVTITCRASQSISSYLNWYQQKPGKAPKLLIYAASSLQSGVPSRFSGSGSGTDFTLTISSLQPEDFATYYCQQSTHLSTFGQGTKLEIKR
notes: also called scFv 3
B9: human synthetic scFv fragment 11 (scFv)
scFv: EVQLLESGGGLVQPGGSLRLSCAASGFTFSSYAMSWVRQAPGKGLEWVSAISGSGGSTYYASVKGRFTISRDNSKNTLYLQMNSLRAEDTAVYYCARYTYYVGGFDYWGQGTLVTVSSGGGGSGGGGSGGGGSDIQMTQSPSSLSASVGDRVTITCRASQSISSYLNWYQQKPGKAPKLLIYAASSLQSGVPSRFSGSGSGTDFTLTISSLQPEDFATYYCQQGFVLSTFGQGTKLEIKR
notes: also called scFv 11
B10: human synthetic scFv fragment 8 (scFv)
scFv: EVQLLESGGGLVQPGGSLRLSCAASGFTFSSYAMSWVRQAPGKGLEWVSAISGSGGSTYYASVKGRFTISRDNSKNTLYLQMNSLRAEDTAVYYCARVFYYGPYYFSYHFDYWGQGTLVTVSSGGGGSGGGGSGGGGSDIQMTQSPSSLSASVGDRVTITCRASQSISSYLNWYQQKPGKAPKLLIYAASSLQSGVPSRFSGSGSGTDFTLTISSLQPEDFATYYCQQDDRGLPTFGQGTKLEIKR
notes: also called scFv 8
B11: human synthetic scFv fragment 10 (scFv)
scFv: EVQLLESGGGLVQPGGSLRLSCAASGFTFSSYAMSWVRQAPGKGLEWVSAISGSGGSTYYASVKGRFTISRDNSKNTLYLQMNSLRAEDTAVYYCARYSYYYTWLDYWGQGTLVTVSSGGGGSGGGGSGGGGSDIQMTQSPSSLSASVGDRVTITCRASQSISSYLNWYQQKPGKAPKLLIYAASSLQSGVPSRFSGSGSGTDFTLTISSLQPEDFATYYCQQFYPSLHTFGQGTKLEIKR
notes: also called scFv 10

biological target: T1, purified prostasomes (from human seminal plasma) (human); assay: direct ELISA, coated purified prostasomes, biotinylated scFv at 4 µg/mL, streptavidin-HRP
T1 construct: Not a single protein: exosome-type vesicle purified from seminal plasma
Protocol: The wells were washed three times with PBS containing 0.05% Tween 20. Addition of biotinylated human synthetic scFv fragments 1:250 in row A were made and then 1:5 dilutions downwards. The plates were then incubated for 2 h at room temperature and then washed three times with PBS containing 0.05% Tween 20. 100 μL Streptavidine-HRP was added to the wells and incubated for 2 h at room temperature. The wells were washed three times with PBS containing 0.05% Tween 20. 100 μL TMB (tetramethylbenzidine) substrate was added to the wells, and incubated for 20 min and 25 μL 1 M H2SO4 was added to the plate. The plate was read at 450 nm.
Seminal plasma was collected from the Reproduction Centre at Akademiska Hospital (Uppsala, Sweden) following previously described routines (Ronquist, G. K., et al., Prostasomal DNA characterization and transfer into human sperm. Mol Reprod Dev, 2011. 78 (7): p. 467-76). The seminal plasma was thawed and centrifuged at 3,000 g for 12 min. The supernatants were collected and centrifuged at 10,000 g for 30 min. The supernatants were then transferred to new tubes and ultra-centrifuged using a 90Ti rotor (Beckman Coulter, Brea, Calif., USA) at 100,000 g for 2 h. The pellets were resuspended in 0.02 M NaH2PO4, 0.15 M NaCl, pH 7.2 (PBS), overnight at 4° C. The resuspended pellets were then loaded on a chromatography column (XK 60/70, GE Healthcare, Uppsala, Sweden) packed with Superdex 200 gel. Fractions were collected at a flow rate of 5 mL/h. The fractions were then measured with a spectrophotometer where peaks at both 260 nm (nucleic acid) and 280 nm (proteins) corresponds to prostasomes. These fractions were collected and pooled and ultra-centrifuged at 100,000 g. The obtained pellet was resuspended in PBS. The purified prostasomes (1 mg/ml were diluted 1:250 in PBS and 100 μL were added per well in a F96 Polysorb NUNC Immunoplate (Thermo Fisher Scientific, Uppsala, Sweden). The plates were incubated for 2 h at ambient temperature and then washed three times with PBS containing 0.05% Tween 20 (P1379, Sigma-Aldrich). 120 μL 1% bovine serum albumin (BSA, Sigma-Aldrich) in PBS were added to the wells and the plate was incubated over night at ambient temperature. The plate was washed three times with PBS containing 0.05% Tween 20. 100 μL of the biotinylated monoclonal antibodies were added in dilution of 4 μg/mL in PBS to the wells.

Row | Absorbance [absorbance at 450 nm] | Binder
1 | 0.556 | B1
2 | 0.617 | B2
3 | 0.954 | B3
4 | 0.643 | B4
5 | 1.36 | B5
6 | 0.394 | B6
7 | 1.29 | B7
8 | 0.903 | B8
9 | 0.066 | B9
10 | 0.653 | B10
11 | 1.64 | B11
